Legend:
[1] = target: Core histone macro-H2A.1 (human) (UniProt O75367); assay: co-IP from A549 WT lysate, LC-MS/MS, peak area against isotype IP
[2] = target: DNA ligase 3 (human) (UniProt P49916); assay: as above
[3] = target: DNA mismatch repair protein Msh2 (human) (UniProt P43246); assay: as above
[4] = target: DNA topoisomerase 2-alpha (human) (UniProt P11388); assay: as above
[5] = target: DNA topoisomerase 2-beta (human) (UniProt Q02880); assay: as above
[6] = target: DNA-dependent protein kinase catalytic subunit (DNA-PK) (human) (UniProt P78527); assay: as above
[7] = target: DNA-directed RNA polymerase I subunit RPA1 (human) (UniProt O95602); assay: as above
[8] = target: FACT complex subunit SPT16 (human) (UniProt Q9Y5B9); assay: as above
[9] = target: Histone H2A.Z (human) (UniProt P0C0S5); assay: as above
[10] = target: Histone H3.1 (human) (UniProt P68431); assay: as above
[11] = target: Poly [ADP-ribose] polymerase 1 (human) (UniProt P09874); assay: as above
[12] = target: Poly [ADP-ribose] polymerase 2 (human) (UniProt Q9UGN5); assay: as above
[13] = target: Replication protein A 70 kDa DNA-binding subunit (human) (UniProt P27694); assay: as above
[14] = target: Sister chromatid cohesion protein PDS5 homolog B (human) (UniProt Q9NTI5); assay: as above
[15] = target: Werner syndrome ATP-dependent helicase (human) (UniProt Q14191); assay: as above
[16] = target: X-ray repair cross-complementing protein 5 (human) (UniProt P13010); assay: as above
[17] = target: X-ray repair cross-complementing protein 6 (human) (UniProt P12956); assay: as above
[18] = target: T1, native human NRP-1 on the cell surface (human, UniProt O14786 22-923); assay: flow cytometry, MDA-MB-231 cells, 10 ug/ml, +heparinase
T1 construct: whole, on cells; endogenous protein; isoform and glycosaminoglycan state on the cells not defined; also called native NRP-1 on MDA-MB-231 cells; native form of NRP-1 protein on the CTCs cell surface

[19] = target: T1, native human NRP-1 on the cell surface; assay: flow cytometry, MDA-MB-231 cells, 10 ug/ml, -heparinase
[20] = target: T1, native human NRP-1 on the cell surface; assay: flow cytometry, MDA-MB-231 cells, 40 ug/ml, -chondroitinase
Protocol: Chondroitinase (C2905, Sigma) was reconstituted in a 0.01% BSA aqueous solution. The MDA-MB-231 cells were treated with chondroitinase (1 U/ml) for 2 hours at 37° C. The cells were detached using cell dissociation solution non-enzymatic (C5914, Sigma). 300,000 cells per condition were washed with 2% FBS in PBS and then incubated with different antibodies of interest or their respective isotype controls at 40 μg/ml for 30 min at 4° C. After wash, an Alexa 488-conjugated anti-human immunoglobulin antibody (20022-1, Biotium) was added at 10 μg/ml for 30 min at 4° C. After a final wash, fluorescence, size and granularity of cells were measured by the LSR Fortessa cytometer (BD Biosciences).

Ratio Area V4/IgG4 [1]: 1130
Ratio Area V4/IgG4 [2]: 78.8
Ratio Area V4/IgG4 [3]: 1
Ratio Area V4/IgG4 [4]: 1440
Ratio Area V4/IgG4 [5]: 369
Ratio Area V4/IgG4 [6]: 6.06
Ratio Area V4/IgG4 [7]: 3210
Ratio Area V4/IgG4 [8]: 6030
Ratio Area V4/IgG4 [9]: 22
Ratio Area V4/IgG4 [10]: 82.5
Ratio Area V4/IgG4 [11]: 546
Ratio Area V4/IgG4 [12]: 259
Ratio Area V4/IgG4 [13]: 2
Ratio Area V4/IgG4 [14]: 358
Ratio Area V4/IgG4 [15]: 540
Ratio Area V4/IgG4 [16]: 2.3
Ratio Area V4/IgG4 [17]: 1.9
percentage of binding [18]: 10.1%
percentage of binding [19]: 12.4%
percentage of binding [20]: 93.2%
B1: variant 4 of a-NRP1_LEP n° 1 (antibody, V domains shown)
VH: EVQLVESGGGLVQPGGSLRLSCAASGFTFSSFGMHWVRQAPGKGLEWVAYISSGSSTIHYADSVKGRFTISRDNAKNSLYLQMNSLRAEDTAMYYCARRHYGSSRYWYFDVWGQGTTVTVSS
VL: EIVLTQSPATLSLSPGERATLSCRASQSVKSYLAWYQQKPGQAPRLLIYYASSRATGIPARFSGSGSGTDFTLTISSLEPEDFAVYYCQQYSESPYTFGQGTKLEIK
notes: humanized variant of 21B10; isotype control hIgG4; also called variant 4 a-NRP1_LEP; variant n°4 a-NRP1_LEP
